From paper PMC4552281

Target: FcBP-encapsulin (Fc-binding peptide inserted encapsulin protein cage nanoparticle) (Thermotoga maritima) (UniProt Q9WZP2)
Experiment: SEC; elution of purified FcBP-encapsulin compared with encapsulin

With “FcBP-encapsulin (Fc-binding peptide inserted encapsulin protein cage nanoparticle) (from UniProt Q9WZP2 1-138; Q9WZP2 139-265) (designed binder)” the stoichiometry N was 60.
